Test results: publication PMC4529466, “Intradermal insulin infusion achieves faster insulin action than subcutaneous infusion for 3-day wear” (Drug Delivery and Translational Research, 2015)

Columns and labels:
[1] = Safety: adverse events, hypoglycemia, Draize erythema and edema scoring of infusion site; format: in vivo, human (T1DM patients)
Protocol: Safety evaluations comprised of recording/classification of adverse events (including hypoglycemia, BG < 60 mg/dL with or without symptoms), physical examinations, clinical laboratory parameters, vital signs, subjective pain assessments, and assessments of local tissue response at the injection site. Visual observations of the area around the infusion site for skin irritation, insulin leakage, and any notable abnormalities were recorded after each bolus delivery. Upon device removal, the study physician checked the site of insulin administration, as well as 1 and 2 h later, and scored any local reactions according to the Draize erythema and edema scale.
Pharmacokinetic parameters were derived from baseline corrected blood insulin data. The pharmacokinetic and pharmacodynamic populations included all patients with data from either route across 3 days of infusion and patients exposed to at least one trial product with available data respective of PK/PD endpoints. PK and PD endpoints were analyzed using a linear mixed effects model (ANOVA) with sequence, application route, meal, and day as factors along with interactions. The safety population included all patients who had participated in any trial-related activity after randomization. VAS pain data comparisons were made between application routes at each assessment time point using a similar model. Safety evaluations were summarized by descriptive statistics.

[2] = VAS self-rated pain perception of bolus delivery and daily infusion; format: in vivo, human (T1DM patients); settings: ID compared to SC infusion
Protocol: Patients rated bolus-associated pain immediately after insulin delivery for both meals and again each evening at approximately 6 PM after completion of the morning dosing and sampling cycles to rate overall discomfort from the infusion process during the preceding 24 h. The visual analog scale (VAS) utilized a standard validated 10-cm scale anchored by “no pain” (score 0) and “severe pain” (score 10) without inclusion of additional numerical or verbal descriptors to avoid clustering of scores around intermediate points. Scores were measured as absolute distant from origin. Within 1 h prior to device removal, patients completed a non-validated user acceptability questionnaire consisting of a set of standard multiple choice closed-ended questions covering acceptability of sensations for infusion sets application and operation, set satisfaction, willingness to use the respective infusion set again, and set preference. Responses were restricted to a 5-point scale generally ranging from extreme agreement/satisfaction to extreme disagreement/satisfaction depending upon the question. […]
Pharmacokinetic parameters were derived from baseline corrected blood insulin data. […] PK and PD endpoints were analyzed using a linear mixed effects model (ANOVA) with sequence, application route, meal, and day as factors along with interactions. […]

In the case of insulin aspart, the “hypoglycemic episodes (BG below 60 mg/dL)” value ([1]; ID infusion) is reported as 67 episodes, the “subjects with hypoglycemic episodes” value ([1]; ID infusion) is reported as 22 subjects and the “instances with Draize erythema score 2” value ([1]; ID route, within 2 h after set removal on day 3) is reported as 4/24. For the same substance, the “hypoglycemic episodes (BG below 60 mg/dL)” value ([1]; SC infusion) was 56 episodes, the “subjects with hypoglycemic episodes” value ([1]; SC infusion) was 18 subjects and the “detected hypoglycemic episodes, total” value ([1]; across the study, both routes, majority asymptomatic) was 123 episodes. For the same substance, the “Draize erythema and edema upon removal of infusion set” value ([1]; both routes, immediately after removal on day 3) was “essentially no detectable erythema or edema”, the “adverse events (AEs), total” value ([1]; entire study, both routes, mild to moderate severity, none serious) was 31 and the VAS self-rated pain [2] was “statistically greater for ID compared to SC infusion”.
